Reference: PMC4952014 (2015)

B1: Siglec-1 (recombinant protein used for SPR) (receptor)
chain: SWGVSSPQDVQGVKGSCLLIPCIFSFPADVEVPDGITAIWYYDYSGQRQVVSHSADPKLVEARFRGRTEFMGNPEHRVCNLLLKDLQPEDSGSYNFRFEISEVNRWSDVKGTLVTVTEEPRVPTIASPVELLEGTEVDFNCSTPYVCLQEQVRLQWQGQDPARSVTFNSQKFEPTGVGHLETLHMAMSWQDHGRILRCQLSVANHRAQSEIHLQVKYAPKGVKILLSPSGRNILPGELVTLTCQVNSSYPAVSSIKWLKDGVRLQTKTGVLHLPQAAWSDAGVYTCQAENGVGSLVSPPISLHIFMAEVQVSPAGPILENQTVTLVCNTPNEAPSDLRYSWYKNHVLLEDAHSHTLRLHLATRADTGFYFCEVQNVHGSERSGPVSVVVNHPPLTPVLTAFLETQAGLVGILHCSVVSEPLATLVLSHGGHILASTSGDSDHSPRFSGTSGPNSLRLEIRDLEETDSGEYKCSATNSLGNATSTLDFHANAARLLISPAAEVVEGQAVTLSCRSGLSPTPDARFSWYLNGALLHEGPGSSLLLPAASSTDAGSYHCRARDGHSASGPSSPAVLTVLYPPRQPTFTTRLDLDAAGAGAGRRGLLLCRVDSDPPARLQLLHKDRVVATSLPSGGGCSTCGGCSPRMKVTKAPNLLRVEIHNPLLEEEGLYLCEASNALGNASTSATFNGQATVLAIAPSHTLQEGTEANLTCNVSREAAGSPANFSWFRNGVLWAQGPLETVTLLPVARTDAALYACRILTEAGAQLSTPVLLSVLYPPDRPKLSALLDMGQGHMALFICTVDSRPLALLALFHGEHLLATSLGPQVPSHGRFQAKAEANSLKLEVRELGLGDSGSYRCEATNVLGSSNTSLFFQVRGAWVQVSPSPELQEGQAVVLSCQVHTGVPEGTSYRWYRDGQPLQESTSATLRFAAITLTQAGAYHCQAQAPGSATTSLAAPISLHVSYAPRHVTLTTLMDTGPGRLGLLLCRVDSDPPAQLRLLHGDRLVASTLQGVGGPEGSSPRLHVAVAPNTLRLEIHGAMLEDEGVYICEASNTLGQASASADFDAQAVNVQVWPGATVREGQLVNLTCLVWTTHPAQLTYTWYQDGQQRLDAHSIPLPNVTVRDATSYRCGVGPPGRAPRLSRPITLDVLYAPRNLRLTYLLESHGGQLALVLCTVDSRPPAQLALSHAGRLLASSTAASVPNTLRLELRGPQPRDEGFYSCSARSPLGQANTSLELRLEGVRVILAPEAAVPEGAPITVTCADPAAHAPTLYTWYHNGRWLQEGPAASLSFLVATRAHAGAYSCQAQDAQGTRSSRPAALQVLYAPQDAVLSSFRDSRARSMAVIQCTVDSEPPAELALSHDGKVLATSSGVHSLASGTGHVQVARNALRLQVQDVPAGDDTYVCTAQNLLGSISTIGRLQVEGARVVAEPGLDVPEGAALNLSCRLLGGPGPVGNSTFAWFWNDRRLHAEPVPTLAFTHVARAQAGMYHCLAELPTGAAASAPVMLRVLYPPKTPTMMVFVEPEGGLRGILDCRVDSEPLASLTLHLGSRLVASSQPQGAPAEPHIHVLASPNALRVDIEALRPSDQGEYICSASNVLGSASTSTYFGVRALHRLHQFQQLLWVLGLLVGLLLLLLGLGACYTWRRRRVCKQSMGENSVEMAFQKETTQLIDPDAATCETSTCAPPLG
B2: JR-FL monomeric gp120 (natural protein)
chain: not shown
modifications: N-glycosylated and sialylated (293F-expressed). Limits are not printed: start is the candidate's CHAIN start at 32, end is the residue before gp41 at 503. A vector-derived N-terminus from the CD5 leader, and a C-terminus affected by the cleavage-site change, are possible but not stated.

Columns and labels:
SF162 FD trimeric gp145 [1] = biological target: T1, SF162 FD trimeric gp145 (HIV-1 SF162 | bacteriophage T4, UniProt P19551); assay: SPR; immobilized Siglec-1
Soc-V1V2JR-FL (293F) = Soc-V1V2JR-FL (293F) (bacteriophage T4 | HIV-1 JR-FL); assay: SPR; immobilized Siglec-1
JR-FL FD trimeric gp145 [2] = biological target: T2, JR-FL FD trimeric gp145 (HIV-1 JR-FL | bacteriophage T4); assay: SPR; immobilized Siglec-1
Soc-V1V2SF162 (CHO-S) = Soc-V1V2SF162 (CHO-S) (bacteriophage T4 | HIV-1 SF162); assay: SPR; immobilized Siglec-1
SF162 FD trimeric gp145 [3] = biological target: T1, SF162 FD trimeric gp145; assay: SPR; immobilized SF162 gp145
JR-FL FD trimeric gp145 [4] = biological target: T2, JR-FL FD trimeric gp145; assay: SPR; immobilized JR-FL gp145
[5] = biological target: B1; assay: SPR; immobilized Siglec-1

B1
Kd (SF162 FD trimeric gp145 [1]): 0.441 nM | Kd (Soc-V1V2JR-FL (293F)): 4.34 nM | Kd (JR-FL FD trimeric gp145 [2]): 0.28 nM | Kd (Soc-V1V2SF162 (CHO-S)): 1.96 nM | Kd (SF162 FD trimeric gp145 [3]): 8.26 nM | Kd (JR-FL FD trimeric gp145 [4]): 2.9 nM

B2
Kd [5]: 4.13 nM
